T1: human GFRα3 expressed with a C-terminal mFc tag (human)
T1 construct: also called hGFRα3-mFc
T1 chain: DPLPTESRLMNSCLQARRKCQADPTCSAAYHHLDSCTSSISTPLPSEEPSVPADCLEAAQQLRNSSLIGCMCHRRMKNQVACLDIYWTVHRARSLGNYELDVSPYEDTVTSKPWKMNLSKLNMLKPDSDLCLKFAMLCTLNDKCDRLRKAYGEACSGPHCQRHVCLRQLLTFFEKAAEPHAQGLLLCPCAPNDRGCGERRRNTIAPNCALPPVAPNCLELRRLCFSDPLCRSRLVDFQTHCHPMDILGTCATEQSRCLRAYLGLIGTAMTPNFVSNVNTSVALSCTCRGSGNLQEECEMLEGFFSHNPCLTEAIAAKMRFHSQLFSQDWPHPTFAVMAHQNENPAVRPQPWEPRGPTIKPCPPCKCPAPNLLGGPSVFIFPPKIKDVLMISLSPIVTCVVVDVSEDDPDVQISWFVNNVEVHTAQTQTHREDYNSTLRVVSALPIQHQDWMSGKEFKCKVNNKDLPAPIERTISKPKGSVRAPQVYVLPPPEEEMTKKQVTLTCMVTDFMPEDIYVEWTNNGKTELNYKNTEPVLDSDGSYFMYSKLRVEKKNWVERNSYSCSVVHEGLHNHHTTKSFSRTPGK

T2: monkey GFRα3 expressed with a C-terminal myc-myc-hexahistidine tag (monkey (Mf), UniProt O60609 32-374 (human entry), limits assumed)
T2 construct: also called MfGFRα3-mmh; MfGFRα3-mmH
T2 chain: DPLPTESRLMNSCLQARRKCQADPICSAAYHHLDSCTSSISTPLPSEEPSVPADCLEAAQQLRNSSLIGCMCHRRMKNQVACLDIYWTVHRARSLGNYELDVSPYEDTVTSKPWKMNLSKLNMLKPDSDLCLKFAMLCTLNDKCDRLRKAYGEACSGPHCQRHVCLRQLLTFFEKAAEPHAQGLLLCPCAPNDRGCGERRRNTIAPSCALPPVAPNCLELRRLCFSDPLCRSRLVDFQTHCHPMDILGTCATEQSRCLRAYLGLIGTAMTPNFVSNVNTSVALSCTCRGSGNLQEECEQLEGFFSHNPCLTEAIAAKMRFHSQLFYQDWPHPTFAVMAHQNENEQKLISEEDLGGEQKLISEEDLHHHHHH


What was measured:
[1] = target: T3, human GFRα3 expressed with a C-terminal myc-myc-hexahistidine tag (human, UniProt O60609 32-374, biotinylated (sites not given) in ELISA format 2 and in the Octet cross-competition; not in SPR); experiment: SPR, Ab captured, 25C
T3 construct: also called hGFRα3-mmh; hGFRα3-mmH
Procedure: (§1) Antibodies were tested for binding to human GFRα3 expressed with either a C-terminal myc-myc-hexahistidine tag (hGFRα3-mmh; SEQ ID: 370, a C-terminal hFc tag (hGFRα3-hFc; SEQ ID:371), or a C-terminal mFc tag (hGFRα3-mFc; SEQ ID:372), as well as monkey GFRα3 expressed with a C-terminal myc-myc-hexahistidine tag (MfGFRα3-mmh; SEQ ID:373). Anti-GFRα3 antibodies were captured on either a goat anti-mouse IgG polyclonal antibody (GE Healthcare, #BR-1008-38) or a mouse anti-human IgG monoclonal antibody (GE Healthcare, #BR-1008-39) surface created through direct amine coupling to a Biacore CM5 sensor chip. Kinetic experiments were carried out using HBS-EP (10 mM HEPES, 150 mM NaCl, 3 mM EDTA, 0.05% Surfactant P20, at pH 7.4) or PBS buffer containing 0.05% v/v surfactant P20 as both the running buffer and the sample buffer. Binding to human GFRα3-mmh or monkey GFRα3-mmh was evaluated by injecting several concentrations ranging from 200 to 7.4 nM (3-fold dilutions) across the captured antibody surface. Binding to human GFRα3-mFc or human GFRα3-hFc was evaluated by injecting several concentrations ranging from 100 to 3.7 nM (3-fold dilutions) across the captured antibody surface. Antibody-antigen association was monitored for up to 4 minutes, while dissociation in buffer was monitored for up to 20 minutes. Kinetic association (kₐ) and dissociation (kd) rate constants were determined by processing and fitting the data to a 1:1 binding model using Scrubber 2.0c curve fitting software. Binding dissociation equilibrium constants (KD) and dissociative half-lives (t_{1/2}) were calculated from the kinetic rate constants as: KD (M)=kd/kₐ and t_{1/2} (min)=[ln 2/(60*kd)].

[2] = target: T1, human GFRα3 expressed with a C-terminal …; experiment: SPR, Ab captured, 25C
Procedure: as §1

[3] = target: T2, monkey GFRα3 expressed with a …; experiment: SPR, Ab captured, 25C
Procedure: as §1

[4] = target: T3, human GFRα3 expressed with a C-terminal …; experiment: Octet cross-competition; biotin-hGFRα3-mmH pre-saturated with first antibody H4H2243N2
Procedure: A cross-competition assay was conducted to assess the ability of select antibodies to compete with one another for binding to human GFRα3 using an Octet RED384 biosensor (Fortebio Inc.). The entire experiment was performed at 25° C. with the flow rate of 1000 rpm in Octet HBST buffer (0.01 M HEPES pH7.4, 0.15M NaCl, 3 mM EDTA, 0.05% v/v Surfactant P20, 0.1 mg/mL BSA). To assess whether 2 antibodies were able to compete with one another for binding to their respective epitopes on biotinylated recombinant human GFRα3 expressed with a C-terminal myc-myc-hexahistidine tag (biotin-hGFRα3-mmH; SEQ ID:370), around ˜1.2 nm of biotin-hGFRα3-mmH was first captured onto streptavidin-coated Octet sensor tips (Fortebio Inc, #18-5019) by submerging the tips for 1 minute into a 10 μg/mL solution of biotin-hGFRα3-mmH. The antigen coated sensor tips were then placed into wells containing 25 μg/mL solution of a first anti-GFRα3 monoclonal antibody for 4 minutes to saturate the biotin-hGFRα3-mmH surface. The sensor tips were then subsequently dipped into wells containing 25 μ/mL solution of a second anti-GFRα3 monoclonal antibody. The sensor tips were washed in Octet HBST buffer in between every step of the experiment. The real-time binding response was monitored during the course of the experiment and the binding response at the end of every step was recorded as shown in FIG. 9. The response of mAb-2 binding to biotin-hGFRα3-mmH pre-complexed with the first antibody was compared and competitive/non-competitive behavior of different anti-GFRα3 monoclonal antibodies was determined.

Row | Binder | Kd [1] | koff [1] | kon [1] | t1/2 [1] | Kd [2] | koff [2] | kon [2] | t1/2 [2] | Kd [3] | koff [3] | kon [3] | t1/2 [3] | binding response of second antibody (nm) [4]
1 | H4H2291S (antibody, human IgG4, V domains shown, human IgG4 Fc (H4H)) VH: EVQLVESGGGLVQPGESLRLSCAASGFTFSNYAMSWVRQAPGKGLEWVSVISGSGGSTYYADSVKGRFTMSRDNSKNTLYLQMNSLRAEDTAVYYCAKPPSRAARYFNYGMDVWGQGTTVTVSS VL: AIRMTQSPSSVSASVGDRVTITCRASQGISSWLAWYQQKPGKAPKLLIYAASSLQSGVPSRFSGSGSGTDFTLTISSLQPEDFATYYCQQANSFPFTFGGGTKVEIK | 0.393 nM | 0.000164 s⁻¹ | 418000 M⁻¹ s⁻¹ | 1.17 h | 0.00463 nM | 4.78e-06 s⁻¹ | 1.03e+06 M⁻¹ s⁻¹ | 40.3 h | 1.85 nM | 0.000279 s⁻¹ | 151000 M⁻¹ s⁻¹ | 0.683 h | 0.52 nm
2 | H4H2296S (antibody, human IgG4, V domains shown, human IgG4 Fc (H4H)) VH: not shown VL: DIVMTQSPSSVSASVGDRVTITCRASQGISSWLAWYQQKPGKAPKLLIYAASSLRSGVPSRFSGSGSGTDFTLTITSLQPEDFATYYCQHTNSFPFTFGPGTKVEIK | 0.332 nM | 0.000187 s⁻¹ | 563000 M⁻¹ s⁻¹ | 1.03 h | 0.00337 nM | 4.17e-06 s⁻¹ | 1.24e+06 M⁻¹ s⁻¹ | 46.2 h | 3.37 nM | 0.000651 s⁻¹ | 193000 M⁻¹ s⁻¹ | 0.3 h | 0.33 nm
3 | H4H2295S (antibody, human IgG4, V domains shown, human IgG4 Fc (H4H)) VH: EVQLVESGGGLVQAGGSLRLSCVASGFTFSSYAMSWVRQAPGKGLEWVSAISGSGGSTYSADSVKGRFTISRDNSKNTLYLQMNSLRAEDTAVYYCTKPSSYSSSNFYYGMDVWGQGTTVTVSS VL: DIQMTQSPSSVSASVGDRVTITCRASQGISSWLAWYQQKPGKAPKLLIYTASSLQSGVPSRFSGSGSRTDFTLTISSLQPEDFATYYCQQTNSLPLTFGPGTKVEIK | 0.54 nM | 0.000256 s⁻¹ | 475000 M⁻¹ s⁻¹ | 0.75 h | 0.00157 nM | 1.69e-06 s⁻¹ | 1.08e+06 M⁻¹ s⁻¹ | 114 h | 5.32 nM | 0.000973 s⁻¹ | 183000 M⁻¹ s⁻¹ | 0.2 h | 0.39 nm
4 | H4H2357S (antibody, human IgG4, V domains shown, human IgG4 Fc (H4H)) VH: EVQLVESGGGLVQPGGSLRLSCAASTFTFSSYAMTWVRQAPGKGLEWVSSISGSGDSTYYADSVKGRFTISRDNSKNTLFLQMNSLRAEDTAVYYCAKKDGPGRYYVRYGMDVWGQGTTVTVSS VL: DIQMTQSPSSVSASVGDRVTITCRASQGISSWLAWYQQKPGKAPKLLIYTTSSLQSGVPSRFSGSGSGTDFTLTISSLQPEDFATYYCQQANSFPLTFGGGTKVDIK | 2.42 nM | 0.000557 s⁻¹ | 230000 M⁻¹ s⁻¹ | 0.35 h | 0.0324 nM | 2.52e-05 s⁻¹ | 779000 M⁻¹ s⁻¹ | 7.63 h | 2.26 nM | 0.000315 s⁻¹ | 140000 M⁻¹ s⁻¹ | 0.617 h | 0.32 nm
5 | H4H2294S (antibody, human IgG4, V domains shown, human IgG4 Fc (H4H)) VH: EVQLVESGGGLVQPGGSLRLSCAASGFTFSSYAMSWVRQAPGKGLEWVSVISGSGGSTYYADAVKGRFTISRDNSKHTLYLQMNSLRAEDTAVYYCTKPSSYSSSNFYYGMDVWGQGSTVTVSS VL: DIQLTQSPSSVSASVGDRVTITCRASQGISSWLAWYQQKPGKAPKLLIYAASSLQSGVPSRFSGSGSGTDFTLTISSLQPEDFATYYCQQTNSFPFPFGPGTKVDIK | 0.142 nM | 7.99e-05 s⁻¹ | 563000 M⁻¹ s⁻¹ | 2.42 h | 0.00463 nM | 5.63e-06 s⁻¹ | 1.22e+06 M⁻¹ s⁻¹ | 34.2 h | 0.627 nM | 0.000204 s⁻¹ | 325000 M⁻¹ s⁻¹ | 0.95 h | 0.29 nm

Continued by falling Kd [1], values first:

Row | Kd [1] | koff [1] | kon [1] | t1/2 [1] | Kd [2] | koff [2] | kon [2] | t1/2 [2] | Kd [3] | koff [3] | kon [3] | t1/2 [3] | binding response of second antibody (nm) [4] | Binder
6 | 1.1 nM | 0.000204 s⁻¹ | 186000 M⁻¹ s⁻¹ | 0.95 h | ≤ 0.00151 nM | ≤ 1e-06 s⁻¹ | 661000 M⁻¹ s⁻¹ | 192 h | 5.87 nM | 0.00055 s⁻¹ | 93700 M⁻¹ s⁻¹ | 0.35 h | 0.15 nm | H4H2342P (antibody, human IgG4, V domains shown, human IgG4 Fc (H4H)) VH: EVQLLESGGGLVQPGGSLRLSCAASGFTFSTYAMSWVRQAPGKGLEWVSAIRGNGVNTYYGDSMKGRFTISRDNSKDTLYLQMNSLRAEDTAVYYCAKNKWELLVFEYWGQGTLVTVSS VL: DIQMTQSPSSLSASVGDRVTITCRASQDISNYLAWYQQKPGKVPKLLIYAASTLQSGVPFRFSGSGSGTDFTLTISSLQPEDVATYYCQKYNSAPPFGPGTKVDIK
7 | 0.821 nM | 0.000152 s⁻¹ | 186000 M⁻¹ s⁻¹ | 1.27 h | ≤ 0.00164 nM | ≤ 1e-06 s⁻¹ | 611000 M⁻¹ s⁻¹ | 192 h | 0.649 nM | 6.78e-05 s⁻¹ | 105000 M⁻¹ s⁻¹ | 2.83 h | 0.24 nm | H4H2355S (antibody, human IgG4, V domains shown, human IgG4 Fc (H4H)) VH: EVQLVESGGGLVQPGGSLRLSCAASGFTFSSYAMSWVRQVPGKGLEWVSAISGSGDNTYNAESVKGRFTISRDNSKNMLYLQMNSLRAEDTAVYYCAKTKFSSSLLFDYWGQGTLVTVSS VL: not shown
8 | 0.483 nM | 5.19e-05 s⁻¹ | 108000 M⁻¹ s⁻¹ | 3.72 h | ≤ 0.00187 nM | – | 534000 M⁻¹ s⁻¹ | 192 h | 1.57 nM | 0.000122 s⁻¹ | 77600 M⁻¹ s⁻¹ | 1.58 h | 1.7 nm | H4H2292S (antibody, human IgG4, V domains shown, human IgG4 Fc (H4H)) VH: EVQLVESGGGVVQPGRSLRLSCAASGFTFSSYGMHWVRQAPGKGLEWVSFIWYDGSNKYYADSVKGRFTISRDNSKNTLYLQMNSLTAEDTAVYYCARRGILTGTTAFDIWGQGTMVTVSS VL: DIQMTQSPSSLSASVGDRVTITCRASQSISSYLNWYQQKPGKAPKLLIYAASSLQSGVPSRFSGSGSGTDFTLTIRSLIPEDFATYYCQQTYNTPFTFGPGTKVEIK

From US20140056903A1 (Regeneron, published 2014)
